The values that follow come from article PMC4329983 (Molecular imaging and biology : MIB : the official …, 2013).

Series [1] in a line: Biodistribution in AR42J tumor-bearing mice. The series is classed as in vivo. The note with it: mouse, in vivo.
Series [2] deals with AR42J tumor bearing athymic nude mice. Kind of series: Biodistribution in AR42J tumor-bearing mice. The series is classed as in vivo.
For series [3] the following is noted: cited from earlier work.
For series [4], the system named is AR42J rat pancreatic cancer cells. Briefly: Internalization studies of 68Ga-labeled conjugates in AR42J cells. The series is classed as cell-based. As to conditions: 37 °C, 10-120 min, ~0.7 nM; reference 68Ga-DOTATOC; Fig. 2.
The conditions of series [5]: cited from earlier work. The source holds these as a separate data set.

In series [1] (iv, kidney uptake), `C[C@@H](O)[C@@H]1NC(=O)[C@H](CCCCN)NC(=O)[C@@H](Cc2c[nH]c3ccccc23)NC(=O)[C@H](Cc2ccc(O)cc2)NC(=O)[C@@H](NC(=O)[C@@H](Cc2ccccc2)NC(=O)CCC(C(=O)O)N2CCN(CC(=O)O)CCN(CC(=O)O)CC2)CSSC[C@@H](C(=O)N[C@H](CO)[C@@H](C)O)NC1=O` (stereo partly drawn) [^68Ga-1, metal not drawn] had a tissue uptake at 0.5 h of 22.8 ± 2.22 %ID/g and a tissue uptake at 2 h of 9.79 ± 1.9 %ID/g. The compound also had a tissue uptake at 0.5 h in series [1] (iv, liver uptake) of 0.81 ± 0.09 %ID/g. Also, in series [1] (tumor uptake), the tissue uptake at 1 h is 22.3 ± 3.22 %ID/g and the tissue uptake at 2 h was determined as 12.8 ± 4.65 %ID/g. In addition, in series [2] (mouse, in vivo), the tumor retention rate is on record as 55%, the tumor/kidney ratio entry was “significantly higher” and the tumor/liver ratio entry is “significantly higher”.

“SST-28: physiological form of somatostatin, natural SSTR ligand”: the biological half-life in series [3] is reported as 2–4 min.

For `C[C@@H](O)[C@@H]1NC(=O)[C@H](CCCCN)NC(=O)[C@@H](Cc2c[nH]c3ccccc23)NC(=O)[C@H](Cc2ccc(O)cc2)NC(=O)[C@@H](NC(=O)[C@@H](Cc2ccccc2)NC(=O)CCC(C(=O)O)N2CCN(C(CCC(=O)O)C(=O)O)CCN(C(CCC(=O)O)C(=O)O)CC2)CSSC[C@@H](C(=O)N[C@H](CO)[C@@H](C)O)NC1=O` (stereo partly drawn) [^68Ga-3, metal not drawn], in series [4], the “Internalization in AR42J cells (time course)” value was “negligible”. In series [1] (5 µCi, tumor uptake, 1 h p.i., AR42J xenograft, n=4), this compound returned a tissue uptake at 1 h of 2.95 ± 0.62 %ID/g. Besides, the tissue uptake at 2 h in series [1] (5 µCi, tumor uptake, 2 h p.i., AR42J xenograft, n=4) was 0.83 ± 0.1 %ID/g; in series [1] (iv, 5 µCi, kidney uptake, 2 h p.i., n=4), 5.24 ± 1.03 %ID/g. The tissue uptake at 0.5 h in series [1] (iv, 5 µCi, kidney uptake, 30 min p.i., n=4) worked out at 13.8 ± 2.22 %ID/g; in series [1] (iv, 5 µCi, liver uptake, 30 min p.i., n=4), 0.51 ± 0.05 %ID/g. In series [2] (1 h p.i., vs 68Ga-DOTATOC, 68Ga-NO2ATOC and 68Ga-2 (P<0.01), Fig. 5), the tumor/stomach ratio result is given as “significantly higher”. Besides, the tumor retention rate in series [2] (2 h p.i.) is given as 19%. Also, in series [2] (2 h p.i. relative to 30 min p.i.), the “retention of the initial kidney uptake” value is “less than 52%”.

`C[C@@H](O)[C@@H]1NC(=O)[C@H](CCCCN)NC(=O)[C@@H](Cc2c[nH]c3ccccc23)NC(=O)[C@H](Cc2ccc(O)cc2)NC(=O)[C@@H](NC(=O)[C@@H](Cc2ccccc2)NC(=O)CN2CCN(CC(=O)O)CCN(CC(=O)O)CCN(CC(=O)O)CC2)CSSC[C@@H](C(=O)N[C@H](CO)[C@@H](C)O)NC1=O` [^68Ga-DOTATOC, metal not drawn, reference compound]: in series [1] (iv, kidney uptake), the tissue uptake at 0.5 h came out at 11.3 ± 2.07 %ID/g and the tissue uptake at 2 h worked out at 7.33 ± 1.28 %ID/g. In series [1] (iv, liver uptake), this compound registered a tissue uptake at 0.5 h of 0.74 ± 0.18 %ID/g and a tissue uptake at 2 h of 4.37 ± 0.2 %ID/g. This compound showed a tissue uptake at 1 h in series [1] (tumor uptake) of 13.5 ± 6.28 %ID/g.

With `O=C([O-])CN1CCN(CC(=O)[O-])CCN(CC(=O)O)CCN(CC(=O)[O-])CC1.[Ga+3]` [DOTA-Ga(III)], the “log K (thermodynamic stability of the Ga(III) complex)” value in series [5] was 21.3.

For the compound “SST-14: physiological form of somatostatin, natural SSTR ligand”, the biological half-life in series [3] is recorded as 2–4 min.

Regarding `O=C([O-])CN1CCN(CC(=O)[O-])CCN(CC(=O)[O-])CC1.[Ga+3]` [NOTA-Ga(III)], in series [5], the “log K (thermodynamic stability of the Ga(III) complex)” value is given as 31.0.

Turning to `C[C@@H](O)[C@@H]1NC(=O)[C@H](CCCCN)NC(=O)[C@@H](Cc2c[nH]c3ccccc23)NC(=O)[C@H](Cc2ccc(O)cc2)NC(=O)[C@@H](NC(=O)[C@@H](Cc2ccccc2)NC(=O)CCC(C(=O)O)N2CCN(CC(=O)O)CCN(C(CCC(=O)O)C(=O)O)CC2)CSSC[C@@H](C(=O)N[C@H](CO)[C@@H](C)O)NC1=O` (stereo partly drawn) [^68Ga-2, metal not drawn], in series [4], the “Internalization in AR42J cells (time course)” value was “significantly decreased”. For the same compound, in series [1] (iv, kidney uptake), the tissue uptake at 0.5 h came out at 18.2 ± 1.84 %ID/g and the tissue uptake at 2 h was determined as 8.22 ± 2.29 %ID/g. Moreover, the tissue uptake at 0.5 h in series [1] (iv, liver uptake) came out at 1.38 ± 0.11 %ID/g. Besides, in series [1] (tumor uptake), the tissue uptake at 1 h came out at 7.87 ± 0.41 %ID/g and the tissue uptake at 2 h worked out at 1.78 ± 0.15 %ID/g. In addition, the tumor retention rate in series [2] (mouse, in vivo) was 24%.

In general, tissue uptake refers to the percentage of the injected dose found per gram of tissue.
